In US20240270846A1 (published 2024):
Substitutions are numbered along the chain they refer to. Numbers in names are those of the source.

B1: CE115HA000/GLS3000 S56T one-arm antibody (antibody, human IgG1, kappa, L234A L235A, N297A, name in Kabat numbering)
heavy: QVQLVESGGGVVQPGRSLRLSCAASGFTFSNAWMHWVRQAPGKGLEWVAQIKAKSNNYATYYAESVKGRFTISRDDSKNSLYLQMNSLKTEDTAVYYCRYVHYGAYYGVDAWGQGTTVTVSSASTKGPSVFPLAPSSKSTSGGTAALGCLVKDYFPEPVTVSWNSGALTSGVHTFPAVLQSSGLYSLSSVVTVPSSSLGTQTYICNVNHKPSNTKVDKKVEPKSCDKTHTCPPCPAPEAAGGPSVFLFPPKPKDTLMISRTPEVTCVVVDVSHEDPEVKFNWYVDGVEVHNAKTKPREEQYASTYRVVSVLTVLHQDWLNGKEYKCKVSNKALPAPIEKTISKAKGQPREPQVYTLPPSRCELTKNQVSLSCAVKGFYPSDIAVEWESNGQPENNYKTTPPVLDSDGSFFLVSKLTVDKSRWQQGNVFSCSVMHEALHNHYTQKSLSLSPDYKDDDDK
chain: EPKSSDKTHTCPPCPAPELLGGPSVFLFPPKPKDTLMISRTPEVTCVVVDVSHEDPEVKFNWYVDGVEVHNAKTKPREEQYNSTYRVVSVLTVLHQDWLNGKEYKCKVSNKALPAPIEKTISKAKGQPREPQVCTLPPSRDELTKNQVSLWCLVKGFYPSDIAVEWESNGQPENNYKTTPPVLDSDGSFFLYSKLTVDKSRWQQGNVFSCSVMHEALHNRYTQKSLSLSP
light: DIVMTQSPLSLPVTPGEPASISCRSSQSLVHSNRNTYLHWYQQKPGQAPRLLIYKVSNRFTGVPDRFSGSGSGTDFTLKISRVEAEDVGVYYCGQGTQVPYTFGQGTKLEIKRTVAAPSVFIFPPSDEQLKSGTASVVCLLNNFYPREAKVQWKVDNALQSGNSQESVTEQDSKDSTYSLSSTLTLSKADYEKHKVYACEVTHQGLSSPVTKSFNRGEC
notes: one-arm IgG1
B2: CE115HA000/GLS3000 V94D one-arm antibody (antibody, human IgG1, kappa, L234A L235A, N297A, name in Kabat numbering)
heavy: B1 heavy
chain: B1 chain
light: B1 light with T61S, V99D
notes: one-arm IgG1
B3: CE115HA000/GLS3000 T92D one-arm antibody (antibody, human IgG1, kappa, L234A L235A, N297A, name in Kabat numbering)
heavy: B1 heavy
chain: B1 chain
light: B1 light with T61S, T97D
notes: one-arm IgG1
B4: CE115HA000/GLS3000 T31I one-arm antibody (antibody, human IgG1, kappa, L234A L235A, N297A, name in Kabat numbering)
heavy: B1 heavy
chain: B1 chain
light: B1 light with T36I, T61S
notes: one-arm IgG1
B5: CE115HA000/GLS3000 T92A one-arm antibody (antibody, human IgG1, kappa, L234A L235A, N297A, name in Kabat numbering)
heavy: B1 heavy
chain: B1 chain
light: B1 light with T61S, T97A
notes: one-arm IgG1
B6: CE115HA000/GLS3000 V94E one-arm antibody (antibody, human IgG1, kappa, L234A L235A, N297A, name in Kabat numbering)
heavy: B1 heavy
chain: B1 chain
light: B1 light with T61S, V99E
notes: one-arm IgG1
B7: CE115HA000/GLS3000 T92L one-arm antibody (antibody, human IgG1, kappa, L234A L235A, N297A, name in Kabat numbering)
heavy: B1 heavy
chain: B1 chain
light: B1 light with T61S, T97L
notes: one-arm IgG1
B8: CE115HA000/GLS3000 V51P one-arm antibody (antibody, human IgG1, kappa, L234A L235A, N297A, name in Kabat numbering)
heavy: B1 heavy
chain: B1 chain
light: B1 light with V56P, T61S
notes: one-arm IgG1
B9: CE115HA000/GLS3000 V94K one-arm antibody (antibody, human IgG1, kappa, L234A L235A, N297A, name in Kabat numbering)
heavy: B1 heavy
chain: B1 chain
light: B1 light with T61S, V99K
notes: one-arm IgG1
B10: CE115HA000/GLS3000 T31E one-arm antibody (antibody, human IgG1, kappa, L234A L235A, N297A, name in Kabat numbering)
heavy: B1 heavy
chain: B1 chain
light: B1 light with T36E, T61S
notes: one-arm IgG1
B11: CE115HA000/GLS3000 V94M one-arm antibody (antibody, human IgG1, kappa, L234A L235A, N297A, name in Kabat numbering)
heavy: B1 heavy
chain: B1 chain
light: B1 light with T61S, V99M
notes: one-arm IgG1
B12: CE115HA000/GLS3000 T92E one-arm antibody (antibody, human IgG1, kappa, L234A L235A, N297A, name in Kabat numbering)
heavy: B1 heavy
chain: B1 chain
light: B1 light with T61S, T97E
notes: one-arm IgG1
B13: CE115HA000/GLS3000 V51D one-arm antibody (antibody, human IgG1, kappa, L234A L235A, N297A, name in Kabat numbering)
heavy: B1 heavy
chain: B1 chain
light: B1 light with V56D, T61S
notes: one-arm IgG1
B14: CE115HA000/GLS3000 T31N one-arm antibody (antibody, human IgG1, kappa, L234A L235A, N297A, name in Kabat numbering)
heavy: B1 heavy
chain: B1 chain
light: B1 light with T36N, T61S
notes: one-arm IgG1
B15: CE115HA000/GLS3000 V51I one-arm antibody (antibody, human IgG1, kappa, L234A L235A, N297A, name in Kabat numbering)
heavy: B1 heavy
chain: B1 chain
light: B1 light with V56I, T61S
notes: one-arm IgG1
B16: CE115HA000/GLS3000 V51E one-arm antibody (antibody, human IgG1, kappa, L234A L235A, N297A, name in Kabat numbering)
heavy: B1 heavy
chain: B1 chain
light: B1 light with V56E, T61S
notes: one-arm IgG1
B17: CE115HA000/GLS3000 T31K one-arm antibody (antibody, human IgG1, kappa, L234A L235A, N297A, name in Kabat numbering)
heavy: B1 heavy
chain: B1 chain
light: B1 light with T36K, T61S
notes: one-arm IgG1
B18: CE115HA000/GLS3000 S56W one-arm antibody (antibody, human IgG1, kappa, L234A L235A, N297A, name in Kabat numbering)
heavy: B1 heavy
chain: B1 chain
light: B1 light with T61W
notes: one-arm IgG1
B19: CE115HA000/GLS3000 S56V one-arm antibody (antibody, human IgG1, kappa, L234A L235A, N297A, name in Kabat numbering)
heavy: B1 heavy
chain: B1 chain
light: B1 light with T61V
notes: one-arm IgG1
B20: CE115HA000/GLS3000 T31P one-arm antibody (antibody, human IgG1, kappa, L234A L235A, N297A, name in Kabat numbering)
heavy: B1 heavy
chain: B1 chain
light: B1 light with T36P, T61S
notes: one-arm IgG1
B21: CE115HA000/GLS3000 V94G one-arm antibody (antibody, human IgG1, kappa, L234A L235A, N297A, name in Kabat numbering)
heavy: B1 heavy
chain: B1 chain
light: B1 light with T61S, V99G
notes: one-arm IgG1
B22: CE115HA000/GLS3000 V94F one-arm antibody (antibody, human IgG1, kappa, L234A L235A, N297A, name in Kabat numbering)
heavy: B1 heavy
chain: B1 chain
light: B1 light with T61S, V99F
notes: one-arm IgG1
B23: CE115HA000/GLS3000 V94I one-arm antibody (antibody, human IgG1, kappa, L234A L235A, N297A, name in Kabat numbering)
heavy: B1 heavy
chain: B1 chain
light: B1 light with T61S, V99I
notes: one-arm IgG1
B24: CE115HA000/GLS3000 V94L one-arm antibody (antibody, human IgG1, kappa, L234A L235A, N297A, name in Kabat numbering)
heavy: B1 heavy
chain: B1 chain
light: B1 light with T61S, V99L
notes: one-arm IgG1
B25: CE115HA000/GLS3000 V94H one-arm antibody (antibody, human IgG1, kappa, L234A L235A, N297A, name in Kabat numbering)
heavy: B1 heavy
chain: B1 chain
light: B1 light with T61S, V99H
notes: one-arm IgG1
B26: CE115HA000/GLS3000 Y32F one-arm antibody (antibody, human IgG1, kappa, L234A L235A, N297A, name in Kabat numbering)
heavy: B1 heavy
chain: B1 chain
light: B1 light with Y37F, T61S
notes: one-arm IgG1
B27: CE115HA000/GLS3000 V94N one-arm antibody (antibody, human IgG1, kappa, L234A L235A, N297A, name in Kabat numbering)
heavy: B1 heavy
chain: B1 chain
light: B1 light with T61S, V99N
notes: one-arm IgG1
B28: CE115HA000/GLS3000 T31D one-arm antibody (antibody, human IgG1, kappa, L234A L235A, N297A, name in Kabat numbering)
heavy: B1 heavy
chain: B1 chain
light: B1 light with T36D, T61S
notes: one-arm IgG1
B29: CE115HA000/GLS3000 V51G one-arm antibody (antibody, human IgG1, kappa, L234A L235A, N297A, name in Kabat numbering)
heavy: B1 heavy
chain: B1 chain
light: B1 light with V56G, T61S
notes: one-arm IgG1
B30: CE115HA000/GLS3000 V94A one-arm antibody (antibody, human IgG1, kappa, L234A L235A, N297A, name in Kabat numbering)
heavy: B1 heavy
chain: B1 chain
light: B1 light with T61S, V99A
notes: one-arm IgG1
B31: CE115HA000/GLS3000 T92I one-arm antibody (antibody, human IgG1, kappa, L234A L235A, N297A, name in Kabat numbering)
heavy: B1 heavy
chain: B1 chain
light: B1 light with T61S, T97I
notes: one-arm IgG1
B32: CE115HA000/GLS3000 S56Y one-arm antibody (antibody, human IgG1, kappa, L234A L235A, N297A, name in Kabat numbering)
heavy: B1 heavy
chain: B1 chain
light: B1 light with T61Y
notes: one-arm IgG1
B33: CE115HA000/GLS3000 Y32D one-arm antibody (antibody, human IgG1, kappa, L234A L235A, N297A, name in Kabat numbering)
heavy: B1 heavy
chain: B1 chain
light: B1 light with Y37D, T61S
notes: one-arm IgG1

Target: T1, CD3 epsilon homodimer protein (UniProt P07766 23-126)
T1 construct: also called CD3 (CD3 epsilon)
Assay: SPR (Biacore T200), CD3e homodimer on CM4 chip, antibody as analyte; KD ratio vs unaltered GLS3000;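 note: CD3 epsilon homodimer amine-coupled to the sensor surface, antibodies injected as analyte at 25 °C with HBS-EP+ running buffer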
Procedure: An appropriate amount of CD3 epsilon homodimer protein was immobilized onto Sensor chip CM4 (GE Healthcare Japan Corp.) by the amine coupling method. Then, the antibody having an appropriate concentration was injected thereto as an analyte and allowed to interact with the CD3 epsilon homodimer protein on the sensor chip. Then, the sensor chip was regenerated by the injection of 10 mmol/L glycine-HCl (pH 1.5). The assay was conducted at 25 degrees C., and HBS-EP+(GE Healthcare Japan Corp.) was used as a running buffer. […] Each parameter was calculated using Biacore T200 Evaluation Software (GE Healthcare Japan Corp.).
Specifically, when the amount of the GLS3000-containing antibody bound was defined as X and the amount of the L chain one-amino acid altered form bound was defined as Y, a value of Z (ratio of amounts bound)=Y/X was used.

T1 sequence (P07766 23-126): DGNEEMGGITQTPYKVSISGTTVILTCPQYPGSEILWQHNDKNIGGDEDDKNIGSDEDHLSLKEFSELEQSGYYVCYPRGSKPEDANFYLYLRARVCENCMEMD

Question: With B1 as the binder, how does the “KD ratio to GLS3000” value read?
Answer: 1.01 ratio

Question: With B2 as the binder, how does the “KD ratio to GLS3000” value read?
Answer: 1.05 ratio

Question: For B3, which “KD ratio to GLS3000” value is on record?
Answer: 11.2 ratio

Question: B4 was tested. Which “KD ratio to GLS3000” value did it give?
Answer: 1.1 ratio

Question: For B5, which “KD ratio to GLS3000” value is on record?
Answer: 1.35 ratio

Question: B6 was tested. Which “KD ratio to GLS3000” value did it give?
Answer: 1.18 ratio

Question: Which “KD ratio to GLS3000” value does the source give for B7 here?
Answer: 1.61 ratio

Question: For B8, which “KD ratio to GLS3000” value is on record?
Answer: 6 ratio

Question: How did the “KD ratio to GLS3000” value turn out when B9 was run?
Answer: 0.91 ratio

Question: How did the “KD ratio to GLS3000” value turn out when B10 was run?
Answer: 1.59 ratio

Question: For B11, which “KD ratio to GLS3000” value is on record?
Answer: 2.74 ratio

Question: For B12, which “KD ratio to GLS3000” value is on record?
Answer: 19.6 ratio

Question: B13 was tested. Which “KD ratio to GLS3000” value did it give?
Answer: 1.5 ratio

Question: B14 was tested. Which “KD ratio to GLS3000” value did it give?
Answer: 4.46 ratio

Question: For B15, which “KD ratio to GLS3000” value is on record?
Answer: 0.69 ratio

Question: How did the “KD ratio to GLS3000” value turn out when B16 was run?
Answer: 0.88 ratio

Question: Which “KD ratio to GLS3000” value does the source give for B17 here?
Answer: 0.88 ratio

Question: Which “KD ratio to GLS3000” value does the source give for B18 here?
Answer: 1.12 ratio

Question: With B19 as the binder, how does the “KD ratio to GLS3000” value read?
Answer: 0.94 ratio

Question: With B20 as the binder, how does the “KD ratio to GLS3000” value read?
Answer: 10.8 ratio

Question: With B21 as the binder, how does the “KD ratio to GLS3000” value read?
Answer: 2.59 ratio

Question: B22 was tested. Which “KD ratio to GLS3000” value did it give?
Answer: 1.75 ratio

Question: With B23 as the binder, how does the “KD ratio to GLS3000” value read?
Answer: 1.46 ratio

Question: With B24 as the binder, how does the “KD ratio to GLS3000” value read?
Answer: 3.06 ratio

Question: For B25, which “KD ratio to GLS3000” value is on record?
Answer: 1.16 ratio

Question: With B26 as the binder, how does the “KD ratio to GLS3000” value read?
Answer: 4.51 ratio

Question: How did the “KD ratio to GLS3000” value turn out when B27 was run?
Answer: 0.96 ratio

Question: For B28, which “KD ratio to GLS3000” value is on record?
Answer: 30.9 ratio

Question: With B29 as the binder, how does the “KD ratio to GLS3000” value read?
Answer: 0.83 ratio

Question: How did the “KD ratio to GLS3000” value turn out when B30 was run?
Answer: 1.05 ratio

Question: For B31, which “KD ratio to GLS3000” value is on record?
Answer: 1.91 ratio

Question: For B32, which “KD ratio to GLS3000” value is on record?
Answer: 1.1 ratio

Question: How did the “KD ratio to GLS3000” value turn out when B33 was run?
Answer: 25.9 ratio
